PMC3673982 (PLoS ONE, 2013)

Molecular target: the molecule itself
Assay: cross-linking; 35 µM protein in 50 mM phosphate pH 7.4, 150 mM NaCl, preincubated at 37°C for 30 min; BS2G d0/d4 at 20-fold molar excess (50- and 100-fold also tested), 1 h on ice, quenched with Tris; read by 4-20% SDS-PAGE with Coomassie stain

B1: Human recombinant αA-G98R crystallin (natural protein, UniProt P02489 1-173, looked up)
chain: MDVTIQHPWFKRTLGPFYPSRLFDQFFGEGLFEYDLLPFLSSTISPYYRQSLFRTVLDSGISEVRSDRDKFVIFLDVKHFSPEDLTVKVQDDFVEIHRKHNERQDDHGYISREFHRRYRLPSNVDQSALSCSLSADGMLTFCGPKIQTGLDATHAERAIPVSREEKPTSAPSS
binding result: binds
